Measured values reported in article PMC5786021, “A dynamic allosteric pathway underlies Rad50 ABC ATPase function in DNA repair” (Scientific Reports, 2018).

Experiments:
Assay in all cases: reconstitution and co-purification by ion-exchange chromatography; Rad50^NBD mixed with a slight excess of Mre11^HLH, heated at 60 °C for 10 min, cooled, complex purified on a HiTrap SP HP column; complex then used for methyl-TROSY NMR at 50 °C
Conditions in all cases: both partners purified
[1] = target: T1, P. furiosus Rad50^NBD (V156M) (P. furiosus, UniProt P58301 1-195; P58301 709-882, V156M)
T1 construct: Rad50, Pyrococcus furiosus, N-terminal ABC-ATPase sub-domain, residues 1-195; flexible linker that replaces the coiled-coil and Zn-hook; Rad50, Pyrococcus furiosus, C-terminal ABC-ATPase sub-domain, residues 709-882; Point mutation made by Quikchange in the Rad50^NBD construct; source: E. coli BL21(DE3) C41, purified (HisTrap, HiTrap SP, Superdex 200)

[2] = target: T2, P. furiosus Rad50^NBD (V157M) (P. furiosus, UniProt P58301 1-195; P58301 709-882, V157M)
T2 construct: Rad50, Pyrococcus furiosus, N-terminal ABC-ATPase sub-domain, residues 1-195; flexible linker that replaces the coiled-coil and Zn-hook; Rad50, Pyrococcus furiosus, C-terminal ABC-ATPase sub-domain, residues 709-882; Point mutation made by Quikchange in the Rad50^NBD construct; source: E. coli BL21(DE3) C41, purified (HisTrap, HiTrap SP, Superdex 200)

[3] = target: T3, P. furiosus Rad50^NBD (V160M) (P. furiosus, UniProt P58301 1-195; P58301 709-882, V160M)
T3 construct: Rad50, Pyrococcus furiosus, N-terminal ABC-ATPase sub-domain, residues 1-195; flexible linker that replaces the coiled-coil and Zn-hook; Rad50, Pyrococcus furiosus, C-terminal ABC-ATPase sub-domain, residues 709-882; Point mutation made by Quikchange in the Rad50^NBD construct; source: E. coli BL21(DE3) C41, purified (HisTrap, HiTrap SP, Superdex 200)

[4] = target: T4, P. furiosus Rad50^NBD (R805E) (P. furiosus, UniProt P58301 1-195; P58301 709-882, R805E)
T4 construct: Rad50, Pyrococcus furiosus, N-terminal ABC-ATPase sub-domain, residues 1-195; flexible linker that replaces the coiled-coil and Zn-hook; Rad50, Pyrococcus furiosus, C-terminal ABC-ATPase sub-domain, residues 709-882; Point mutation made by Quikchange in the Rad50^NBD construct; also called basic switch mutant; source: E. coli BL21(DE3) C41, purified (HisTrap, HiTrap SP, Superdex 200)
T4 sequence (P58301 other isoform, or with tags, fused parts or gaps R805E | R805E | R805E R805E): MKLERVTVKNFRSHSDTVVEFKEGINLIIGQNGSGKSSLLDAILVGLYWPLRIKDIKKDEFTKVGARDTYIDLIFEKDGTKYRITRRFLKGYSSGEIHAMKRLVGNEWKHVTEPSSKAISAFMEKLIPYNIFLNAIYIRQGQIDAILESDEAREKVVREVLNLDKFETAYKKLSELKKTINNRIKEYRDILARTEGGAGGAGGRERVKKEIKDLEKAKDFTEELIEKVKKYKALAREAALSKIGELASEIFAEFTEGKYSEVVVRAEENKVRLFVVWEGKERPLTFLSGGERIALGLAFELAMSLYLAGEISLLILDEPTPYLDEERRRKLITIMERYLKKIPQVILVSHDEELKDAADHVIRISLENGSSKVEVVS

T3 sequence (P58301 other isoform, or with tags, fused parts or gaps V160M | V160M | V160M V160M): as the sequence (P58301 other isoform, or with tags, fused parts or gaps R805E | R805E | R805E R805E) above, with V160M, E300R counted along it
T1 sequence (P58301 other isoform, or with tags, fused parts or gaps V156M | V156M | V156M V156M): as the sequence (P58301 other isoform, or with tags, fused parts or gaps R805E | R805E | R805E R805E) above, with V156M, E300R counted along it
T2 sequence (P58301 other isoform, or with tags, fused parts or gaps V157M | V157M | V157M V157M): as the sequence (P58301 other isoform, or with tags, fused parts or gaps R805E | R805E | R805E R805E) above, with V157M, E300R counted along it

binding result [1]: binds | binding result [2]: binds | binding result [3]: binds | binding result [4]: binds
B1: P. furiosus Mre11 helix-loop-helix domain (Mre11^HLH, aa344-426) (domain or fragment)
chain: not shown
notes: Mre11, Pyrococcus furiosus, helix-loop-helix domain, residues 344-426, sub-cloned from codon optimized full-length Pf Mre11; Protonated (unlabelled) in the NMR samples; source: E. coli BL21(DE3) C41, purified (HisTrap, HiTrap Phenyl HP); not shown: NusA, N-terminal, cleaved; His6, N-terminal, cleaved
